The labels stand for the following.
B1: Isoform 2 of Structural maintenance of chromosomes protein 2 (other)
chain: MHIKSIILEGFKSYAQRTEVNGFDPLFNAITGLNGSGKSNILDSICFLLGISNLSQVRASNLQDLVYKNGQAGITKASVSITFDNSDKKQSPLGFEVHDEITVTRQVVIGGRNKYLINGVNANNTRVQDLFCSVGLNVNNPHFLIMQGRITKVLNMKPPEILSMIEEAAGTRMYEYKKIAAQKTIEKKEAKLKEIKTILEEEITPTIQKLKEERSSYLEYQKVMREIEHLSRLYIAYQFLLAEDTKVRSAEELKEMQDKVIKLQEELSENDKKIKALNHEIEELEKRKDKETGGILRSLEDALAEAQRVNTKSQSAFDLKKKNLACEESKRKELEKNMVEDSKTLAAKEKEVKKITDGLHALQEASNKDAEALAAAQQHFNAVSAGLSSNEDGAEATLAGQMMACKNDISKAQTEAKQAQMKLKHAQQELKNKQAEVKKMDSGYRKDQEALEAVKRLKEKLEAEMKKLNYEENKEESLLEKRRQLSRDIGRLKETYEALLARFPNLRFAYKDPEKNWNRNCVKGLVASLISVKDTSATTALELVAGERLYNVVVDTEVTGKKLLERGELKRRYTIIPLNKISARCIAPETLRVAQNLVGPDNVHVALSLVEYKPELQKAMEFVFGTTFVCDNMDNAKKVAFDKRIMTRTVTLGGDVFDPHGTLSGGARSQAASILTKFQELKDVQDELRIKENELRALEEELAGLKNTAEKYRQLKQQWEMKTEEADLLQTKLQQSSYHKQQEELDALKKTIEESEETLKNTKEIQRKAEEKYEVLENKMKNAEAERERELKDAQKKLDCAKTKADASSKKMKEKQQEVEAITLELEELKREHTSYKQQLEAVNEAIKSYESQIEVMAAEVAKNKESVNKAQEEVTKQKEVITAQDTVIKAKYAEVAKHKEQNNDSQLKIKELDHNISKHKREAEDGAAKVSKMLKDYDWINAERHLFGQPNSAYDFKTNNPKEAGQRLQKLQEMKEKLGRNVNMRAMNVLTEAEERYNDLMKKKRIVENDKSKILTTIEDLDQKKNQALNIAWQKVNKDFGSIFSTLLPGANAMLAPPEGQTVLDGLEFKVALGNTWKENLTELSGGQRQKQQNHTTG
B2: Isoform 2 of Putative RNA-binding protein 15 (other)
chain: MRTAGRDPVPRRSPRWRRAVPLCETSAGRRVTQLRGDDLRRPATMKGKERSPVKAKRSRGGEDSTSRGERSKKLGGSGGSNGSSSGKTDSGGGSRRSLHLDKSSSRGGSREYDTGGGSSSSRLHSYSSPSTKNSSGGGESRSSSRGGGGESRSSGAASSAPGGGDGAEYKTLKISELGSQLSDEAVEDGLFHEFKRFGDVSVKISHLSGSGSGDERVAFVNFRRPEDARAAKHARGRLVLYDRPLKIEAVYVSRRRSRSPLDKDTYPPSASVVGASVGGHRHPPGGGGGQRSLSPGGAALGYRDYRLQQLALGRLPPPPPPPLPRDLERERDYPFYERVRPAYSLEPRVGAGAGAAPFREVDEISPEDDQRANRTLFLGNLDITVTESDLRRAFDRFGVITEVDIKRPSRGQTSTYGFLKFENLDMSHRAKLAMSGKIIIRNPIKIGYGKATPTTRLWVGGLGPWVPLAALAREFDRFGTIRTIDYRKGDSWAYIQYESLDAAHAAWTHMRGFPLGGPDRRLRVDFADTEHRYQQQYLQPLPLTHYELVTDAFGHRAPDPLRGARDRTPPLLYRDRDRDLYPDSDWVPPPPPVRERSTRTAATSVPAYEPLDSLDRRRDGWSLDRDRGDRDLPSSRDQPRKRRLPEESGGRHLDRSPESDRPRKRHCAPSPDRSPELSSSRDRYNSDNDRSSRLLLERPSPIRDRRGSLEKSQGDKRDRKNSASAERDRKHRTTAPTEGKSPLKKEDRSDGSAPSTSTASSKLKSPSQKQDGGTAPVASASPKLCLAWQGMLLLKNSNFPSNMHLLQGDLQVASSLLVEGSTGGKVAQLKITQRLRLDQPKLDEVTRRIKVAGPNGYAILLAVPGSSDSRSSSSSAASDTATSTQRPLRNLVSYLKQKQAAGVISLPVGGNKDKENTGVLHAFPPCEFSQQFLDSPAKALAKSEEDYLVMIIVRGAS
B3: Cytoskeleton-associated protein 4 (other)
chain: MPSAKQRGSKGGHGAASPSEKGAHPSGGADDVAKKPPPAPQQPPPPPAPHPQQHPQQHPQNQAHGKGGHRGGGGGGGKSSSSSSASAAAAAAAASSSASCSRRLGRALNFLFYLALVAAAAFSGWCVHHVLEEVQQVRRSHQDFSRQREELGQGLQGVEQKVQSLQATFGTFESILRSSQHKQDLTEKAVKQGESEVSRISEVLQKLQNEILKDLSDGIHVVKDARERDFTSLENTVEERLTELTKSINDNIAIFTEVQKRSQKEINDMKAKVASLEESEGNKQDLKALKEAVKEIQTSAKSREWDMEALRSTLQTMESDIYTEVRELVSLKQEQQAFKEAADTERLALQALTEKLLRSEESVSRLPEEIRRLEEELRQLKSDSHGPKEDGGFRHSEAFEALQQKSQGLDSRLQHVEDGVLSMQVASARQTESLESLLSKSQEHEQRLAALQGRLEGLGSSEADQDGLASTVRSLGETQLVLYGDVEELKRSVGELPSTVESLQKVQEQVHTLLSQDQAQAARLPPQDFLDRLSSLDNLKASVSQVEADLKMLRTAVDSLVAYSVKIETNENNLESAKGLLDDLRNDLDRLFVKVEKIHEKV
B4: Monofunctional C1-tetrahydrofolate synthase (enzyme)
chain: SSGGGGGGGGGREGLLGQRRPQDGQARSSCSPGGRTPAARDSIVREVIQNSKEVLSLLQEKNPAFKPVLAIIQAGDDNLMQEINQNLAEEAGLNITHICLPPDSSEAEIIDEILKINEDTRVHGLALQISENLFSNKVLNALKPEKDVDGVTDINLGKLVRGDAHECFVSPVAKAVIELLEKSGVNLDGKKILVVGAHGSLEAALQCLFQRKGSMTMSIQWKTRQLQSKLHEADIVVLGSPKPEEIPLTWIQPGTTVLNCSHDFLSGKVGCGSPRIHFGGLIEEDDVILLAAALRIQNMVSSGRRWLREQQHRRWRLHCLKLQPLSPVPSDIEISRGQTPKAVDVLAKEIGLLADEIEIYGKSKAKVRLSVLERLKDQADGKYVLVAGITPTPLGEGKSTVTIGLVQALTAHLNVNSFACLRQPSQGPTFGVKGGAAGGGYAQVIPMEEFNLHLTGDIHAITAANNLLAAAIDTRILHENTQTDKALYNRLVPLVNGVREFSEIQLARLKKLGINKTDPSTLTEEEVSKFARLDIDPSTITWQRVLDTNDRFLRKITIGQGNTEKGHYRQAQFDIAVASEIMAVLALTDSLADMKARLGRMVVASDKSGQPVTADDLGVTGALTVLMKDAIKPNLMQTLEGTPVFVHAGPFANIAHGNSSVLADKIALKLVGEEGFVVTEAGFGADIGMEKFFNIKCRASGLVPNVVVLVATVRALKMHGGGPSVTAGVPLKKEYTEENIQLVADGCCNLQKQIQITQLFGVPVVVALNVFKTDTRAEIDLVCELAKRAGAFDAVPCYHWSVGGKGSVDLARAVREAASKRSRFQFLYDVQVPIVDKIRTIAQAVYGAKDIELSPEAQAKIDRYTQQGFGNLPICMAKTHLSLSHQPDKKGVPRDFILPISDVRASIGAGFIYPLVGTMSTMPGLPTRPCFYDIDLDTETEQVKGLF

The target in this experiment is T1, HA-PTEN (human, UniProt P60484 1-403).
T1 construct: Expressed in DU145 cells and immunoprecipitated with anti-PTEN antibody for mass spectrometry; also called exogenous PTEN; pcDNA3-HA-PTEN; not shown: HA tag
Put plainly: anti-PTEN immunoprecipitation from DU145 cells transfected with HA-PTEN, SDS-PAGE, mass-spectrometric peptide sequencing of the bands (association in the precipitate). From the text:
FIG. 2A is a Western blot. Lysates from DU145 cells transfected with HA-PTEN were immunoprecipitated with an anti-PTEN antibody followed by mass-spectrometric peptide sequencing. WWP1 and NEDD4-1 were identified.
In order to identify the E3 ligases that induce PTEN atypical K27-linked poly-ubiquitination, exogenous PTEN was immunoprecipitated from DU145 cells, followed by identification of the proteins that interacted with PTEN by mass spectrometry (FIG. 2A; FIG. 18).
Turning to B1, the binding result was “binds”.
For B2 the value was “binds”; for B3, “binds”.
For B4 the value was “binds”.
